Here are results for one molecule from publication PMC7863765.

This test concerns the target T1, untagged full-length human 14-3-3ζ (human), P63104.
T1 chain: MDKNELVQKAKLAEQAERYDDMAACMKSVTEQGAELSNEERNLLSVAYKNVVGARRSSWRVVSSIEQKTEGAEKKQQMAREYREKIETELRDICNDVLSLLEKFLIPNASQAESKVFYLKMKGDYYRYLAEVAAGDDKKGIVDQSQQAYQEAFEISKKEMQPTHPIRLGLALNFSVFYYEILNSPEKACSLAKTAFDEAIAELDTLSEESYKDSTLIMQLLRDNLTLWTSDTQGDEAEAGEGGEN
In words: SEC. The following applies: remark: other sources report otherwise.

B1: untagged full-length human 14-3-3ζ, P63104 1-245 (natural protein)
chain: MDKNELVQKAKLAEQAERYDDMAACMKSVTEQGAELSNEERNLLSVAYKNVVGARRSSWRVVSSIEQKTEGAEKKQQMAREYREKIETELRDICNDVLSLLEKFLIPNASQAESKVFYLKMKGDYYRYLAEVAAGDDKKGIVDQSQQAYQEAFEISKKEMQPTHPIRLGLALNFSVFYYEILNSPEKACSLAKTAFDEAIAELDTLSEESYKDSTLIMQLLRDNLTLWTSDTQGDEAEAGEGGEN
Consider B1, for which the stoichiometry N turned out to be 2.

Usually stoichiometry N stands for the number of molecules, sites or subunits per partner or assembly.
